The values that follow come from paper PMC5118804.

Experiment [1] concerns the target FLAGemGFP-tagged PAIP2 PAM2 (PAM2 motif of PABP-interacting protein 2).
Experiment [2] has the same target. The source holds these as a separate data set.
Experiment [3] has as its target MS2V5-eIF4G 84-295 (eIF4G deletion mutant that only contains the interaction site for PABPC1) (UniProt Q04637).
Experiment [4] deals with FLAGemGFP-tagged eRF3a -C PAM2 (C-terminal PAM2 motif of eRF3a).
Experiment [5] addresses FLAGemGFP-tagged eRF3a -N PAM2 (N-terminal PAM2 motif of eRF3a).
For experiment [6], the target named is FLAGemGFP-tagged eRF3a PAM2 (overlapping N- and C-terminal PAM2 motifs of eukaryotic release factor 3a).

Chain of UniProt Q04637 (Q04637 84-295, stated change not applied): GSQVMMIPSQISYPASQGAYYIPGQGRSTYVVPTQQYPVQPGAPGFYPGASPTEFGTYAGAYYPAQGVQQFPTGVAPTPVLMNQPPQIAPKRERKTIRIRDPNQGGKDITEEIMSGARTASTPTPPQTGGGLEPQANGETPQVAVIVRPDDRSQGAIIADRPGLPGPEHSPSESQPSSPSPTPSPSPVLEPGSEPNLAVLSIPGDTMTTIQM

With “cytoplasmic poly(A)-binding protein (PABPC1) (from UniProt P11940 1-636) (natural protein)”, the reporter mRNA level (TPI-4MS2 reporter with the SMG5 3' UTR, Northern blot, HeLa) upon tethering MS2V5-PAIP2 PAM2, relative to MS2V5-SYNZIP 1 (Fig. 2c) in experiment [1] was found to be 4 fold. In addition, in experiment [2], the reporter mRNA level (beta-globin 4MS2/4PP7 double tethering reporter, Northern blot, HeLa) upon tethering MS2V5-PAIP2 PAM2 upstream of PP7-tethered BTZ, relative to GST upstream of BTZ (Fig. 5d) turned out to be 8 fold and the reporter mRNA level (beta-globin 4MS2/4PP7 double tethering reporter, Northern blot, HeLa) upon tethering MS2V5-PAIP2 PAM2 upstream of PP7-tethered RNPS1, relative to GST upstream of RNPS1 (Fig. 5c) was 6 fold. In addition, the reporter mRNA level (TPI-4MS2 reporter with the SMG5 3' UTR, Northern blot, HeLa) upon tethering MS2V5-eIF4G 84-295, relative to MS2V5-GST in experiment [3] came to 5 fold. In experiment [4], the reporter mRNA level (FLAG-TPI-4MS2-SMG5, Northern blot, HeLa) upon tethering the MS2V5-tagged C-terminal eRF3a PAM2 motif (Fig. 3b) was determined as 5 fold. Besides, the reporter mRNA level (FLAG-TPI-4MS2-SMG5, Northern blot, HeLa) upon tethering the MS2V5-tagged N-terminal eRF3a PAM2 motif (Fig. 3b) in experiment [5] was found to be 5 fold. For the same substance, the reporter mRNA level (FLAG-TPI-4MS2-SMG5, Northern blot, HeLa) upon tethering the MS2V5-tagged overlapping eRF3a PAM2 motif, relative to MS2V5-GST (Fig. 3b) in experiment [6] is 5 fold.
